Consider 1 molecule from patent US20150023967A1 (published 2015).

By Kd is commonly meant the concentration at which binding is half-saturated. A low value points to higher affinity.

The target of one experiment is BCMA 101 x CD3. Put plainly: SPR (Biacore). (In general: Surface plasmon resonance follows binding to a sensor surface in real time, without labels.)
The target of a further experiment is BCMA 102 x CD3. Briefly: SPR (Biacore).

B1: Human BCMA (other)
chain (part 1 of 2): MLQMAGQCSQNEYFDSLLHACIPCQLRCSSNTPPLTCQRYCNASVTNSVKGTNASGGGGSEAHKSEIAHRYNDLGEQHFKGLVLIAFSQYLQKCSYDEHAKLVQEVTDFAKTCVADESAANCDKSLHTLFGDKLCAIPNLRENYGELADCCTKQEPERNECFLQHKDDNPSLPPFERPEAEAMCTSFKENPTTFMGHYLHEVARRHPYFYAPELLYYAEQYNEILTQCCAEADKESCLTPKLDGVKEKALVSSVRQRMKCSSMQKFGERAFKAWAVARLSQTFPNADFAEITKLATDLTKVNKECCHGDLLECADDRAELAKYMCENQATISSKLQTCCDKPLLKKAHCLSEVEHDTMPADLPAIAADFVEDQEVCKNYAEAKDVFLGTFLYEYSRRHPDYSVSLLLRLAKKYEATLEKCCAEANPPACYGTVLAEFQPLVEEPKNLVKTNCDLYEKLGEYGFQNAILVRYTQKAPQVSTPTLVEAARNLGRVGTKCCTLPEDQRLPCVEDYLSAILNRVCLLHEKTPVSEHVTKCCSGSLVERRPCFSALTVDETYVPKEFKAETFTFHSDICTLPEKEKQIKKQTALAELVKHKPKATAEQLKTVMDDFAQFLDTCCKAADKDTCFSTEGPNLVTRCKDALA
chain (part 2 of 2): SGHHGGHHGGHH
As for B1, the Kd came out at 500 pM in the experiment with BCMA 101 x CD3 and 600 pM with BCMA 102 x CD3.
